The data set in a line: label from the status in PepcDB records.
Turning to “MAFELSPSDLEPLLQGACFFGSGGGGTMISARHLAANFRKGDYYPTDKVRVVDVDEATDGDCVMVAYMGAPDAINQVQWPNGPVEAALAARQRLESQGRKLAYVVAPESGALGFVVASLVAAKLGLAVVDADGAGRAVPSLPMLTYAAAGVPPTPAFLAGESGLCVELGVRMPPPDGQRREDISTVVEQMLRPILTNPQFGQFGGLAMWMMSPAQLGGALPVRGTLSRALKLGRALQDGKVKTAEAMLDFLRRELDIKGKLLFGPATLASSEVSTAGGFDLGKVVLEDGERRCTVLYQNESLLAWDSALSHPLATAPDAISYFVEGEGQHVFSNGDLSGNDHGLDPSVRGRKAAVIALPAAAPLSEGLILQSFADELAQLGYLGPYAPVDAGREGARLEHHHHHH”, the protein production result is recorded as “not failed”.

For “MAFIAVHDGLTGLHNRTFLTDHFDTLIKGAHRRRERLAVVQLDLDRFKQINDTLGHAAGDYVLVVTAQRMRDSCRASDLCARLGGDEFVMILNGAGSTEDINMLARRILAHINEPIVFQGTTILPGASGGIAVYPIDADNAQDLLVHADLALYSAKKLGGGNFSFFSEELRRELDYRKQLEHDIKVAISERAFQVYFQPQVSLTDGTISGIEALVRWNHHERGMISPGEFIPVAEKCGFMPEIGRIVIGKAINEAAEWNRAGIAFGRLAVNVSGTELREHDFDAFLFETLEKAGLPPQKLSLEIVESVILDDEKTGIAAKLRHIRAAGIHLELDDFGTGYASLSHVNPNEIDRLKIDRRFVQNIHENGDNSKIVRAITELARGLGISIVAEGAETEAELDSLMAIGCDQVQGYSIAFPMPQDKALEWLTARMPKKAKLRVLQGSLA”, the protein production entry is “failed”.

“MAFLIISLIIMLIGLLRLKINKRSIIGGIFLASGLILSLASLFFELLNLIYLYLPSGDFATLIIAYGILPLIFLLVCGYFIFNSKTMRTKEGKSATAKLSALFGLNLLIAFPALFMLFTFSTKTIPQIIWYILLYILLIDIILCFLFAAYILYSWMSQMIPLQKKIDYIIILGSGVRSEEVPPLLKSRLDKGIEYYQKNPTAKFVVSGGQGADEPVSEAFAMRKYLHSQNIPNHQILFEDKFTTTYENMLFSKRIINEDWSDKEMPPSIIFSTNNYHVLRGSLYAQRVKLKAQGVGGTHSTLFLTYGLNS”: the protein production entry is on record as “failed”.

As for “MAFNHLPAGVHDALGPLSVMPVTHSLPMAKNHRPDRSSSDTASSPSPGTVLDRLASGPSRASRITHTEHLPPREGRHAVWPDRIRSEVIAAVQAAGIEHPWAHQARAAEHALDGESVVVATGTASGKSLAYLVPALSALLDGSEAPNGRGATALYLAPTKALAADQCRSVKELSQPLGTAVRPAVYDGDTPVEEREWVRQYANYVLTNPDMLHRGILPAHPRWSSFLRALRYVVIDECHTYRGVFGSHVAQVLRRLRRLCARYGASPVFLLASATAAEPSVAASRLTGLRVVEVADDASPRGELVFALWEPPLTELHGEKGAPVRRTATAETADLLTDLTLQGVRSVAFVRSRRGAELIAVIAQERLAEIDRSLARRVAAYRGGYLPEERRALERALHSGELLGLAATTALELGVDVSGLDAVVIAGYPGTRASLWQQAGRAGRSGQGALAILVARDDPLDTFLVHHPEALFDQPVESTVLDPDNPYVLAPHLCAAAEELPLVEEDLALFGPSTADLLPQLEAAKLLRRRTKAWHWTRRERAADLTDIRGEGGRPVQIVEAGTGRLLGTVDAGAAHTTVHEGAVHLHQGRTYLVRELDLEDSVALVEEANPSYSTVARDTTAISVLETDVEVPWGEGRLCYGSVEVTNQVVSFLRRRLITGEVLGETKLDLPPRTLRTRAVWWTVTEDQLDAARITPEILGGALHAAEHASIGMLPLFATCDRWDIGGVSVPLHPDTLLPTVFVYDGHPGGAGFAERAFHTARDWLTATRQAIASCECDAGCPSCIQSPKCGNGNDPLHKRGAVRLLSVLLRGAAEQEKAGLPKEPARAAESSAD”, the protein production entry is recorded as “failed”.

As for “MAGAAQSHAVPGFRRNMVTICAMTATIMQALDTTIANVALPYMQGSLSASQDQINWVLTSYIVAAAIMTAPVGWIANRFGRKRIFIICSAGFTIASVMCGLAQDITQMVVFRLLQGVFGAALVPLSQAVMLDSYALHERAKAMSIWGMGVMMGPIMGPSLGAWLTETYSWHWVFFVNLPFGAITVLGLAMFMDETDKNQELKFDWFGFAALAVGIGAMQLALDRGEQLDWFNSPEIIIESIVSVVGFYYFFAHSFTTERPFIQFAIFKDRNFVGGVVFMTVMGLVLFSTMALSSPFLQNVEGYPIMTAGLLLASRGCGTFVAMMIVGRIMRYIEARTLIATGLSLTCASLYVMTGWTDQTSVSSVVVTSIIQGFGFGLVFVPLSTVAFMTLPGQLRTDGTAMLTLVRNVASSVGISVVIAKLSSGTTTAHAILTEHINPFNNALQMPNVTGMIDLSTTTGKAMMDAIVTMQAQIIAFSHDYAMVMFLTAAAVPMAIIIGSTKAALRKQSEAPADHAAVME”, the protein production result is “failed”.

With “MAGAMRKMAVYLGLVEDDGYDGRGFDPDDDFEPELDPEPERDRRRHEPPHQSHQALHPQRDESVRVVQPPMQRDPVPHSASLPAESVRPARIAPVASITQERQSLEKNAPVIMPKVVSEREPYRITTLHPRTYNEARTIGEHFREGTPVIMNLTEMDDTDAKRLVDFAAGLVFGLHGSIERVTQKVFLLSPANVDVTAEDKARIAEGGFFNQSLEHHHHHH”, the protein production entry is “not failed”.

“MAGDQELELRFDVPLYTLAEASRYLVVPRATLATWADGYERRPANAPAVQGQPIITALPHPTGSHARLPFVGIAEAYVLNAFRRAGVPMQRIRPSLDWLIKNVGPHALASQDLCTDGAEVLWRFAERSGEGSPDDLVVRGLIVPRSGQYVFKEIVEHYLQQISFADDNLASMIRLPQYGDANVVLDPRRGYGQPVFDGSGVRVADVLGPLRAGATFQAVADDYGVTPDQLRDALDAIAA”: the protein production entry is on record as “not failed”.

As to “MAGGLGKCSKIRHIVRLRQMLRRWRDQARMSSSFSRCVPSDVPSGHVAVYVGSSCRRFVVRATYLNHPVLRNLLVQAEEEFGFVNQGPLVIPCEESVFEESIRFISRSDSTRSRRFTCPDDFQKNCHVVGIRSKLDLWIESRPLLHGVTEKAVW”, the protein production entry is recorded as “failed”.

For the sequence “MAGIRLLPEEPETTPQQQARAAAAVTTTTTDSLASDDDRSIAADSWSIKSEYGSTLDDDQRHADAAEALSSANFRVSSDYSSDKEEPDADGGGQSMLGLQSYWDAAYSDELTNFREHGHAGEVWFGDDVMEIVTSWTKDLCVEISQRNMSVSENDVTTEVNDQADKYLSSWNVLDLGTGNGLLLHQLAKEGFSDLTGTDYSDGAVELAQHLSQRDGFPNIRFMVDDILDTKLEQQFKLVMDKGTLDAIGLHPDGPVKRVMYWDSVSKLVAPGGILVITSCNHTKDELVEEVENFNIRKSNLCRGDGNDANNVLSSGSEAASRIDQPPFEYLSHVRTYPTFMFSGSVGSRVATVAFLRK”, the protein production result is on record as “failed”.

With “MAGLAARLVLLAGAAALASGSQGDREPVYRDCVLQCEEQNCSGGALNHFRSRQPIYMSLAGWTCRDDCKYECMWVTVGLYLQEGHKVPQFHGKWPFSRFLFFQEPASAVASFLNGLASLVMLCRYRTFVPASSPMYHTCVAFAWVSLNAWFWSTVFHTRDTDLTEKMDYFCASTVILHSIYLCCVRTVGLQHPAVVSAFRALLLLMLTVHVSYLSLIRFDYGYNLVANVAIGLVNVVWWLAWCLWNQRRLPHVRKCVVVVLLLQGLSLLELLDFPPLFWVLDAHAIWHISTIPVHVLFFSFLEDDSLYLLKESEDKFKLD”, the protein production entry is “failed”.

“MAGNSLVLPIVLWGRKAPTHCISSILLTDDGGTIVTGCHDGQICLWDVSVELEVNPRALLFGHTASITCLSKACASGDKRYTVSASANGEMCLWDVNDGRCIEFTKLACTHTGIQFYQFSVGNQQEGRLLCHGHYPEILVVDATSLEVLYSLVSKISPDWISSMSIIRSQRTQEDTVVALSVTGILKVWIVTSEMSGMQDTEPIFEEESKPIYCQNCQSISFCAFTQRSLLVVCSKYWRVFDAGDYSLLCSGPSENGQTWTGGDFVSADKVIIWTENGQSYIYKLPASCLPASDSFRSDVGKAVENLIPPVQHSLLDQKDKELVICPPVTRFFYGCKEYLHKLLIQGDSSGRLNIWNIADIAEKQEADEGLKMTTCISLQEAFDKLKPCPAGIIDQLSVIPNSNEPLKVTASVYIPAHGRLVCGREDGSIIIVPATQTAIVQLLQGEHMLRRGWPPHRTLRGHRNKVTCLLYPHQVSARYDQRYLISGGVDFSVIIWDIFSGEMKHIFCVHGGEITQLLVPPENCSVSRFI”: the protein production result is “failed”.

Take “MAGRRMKRLRAFFYVQHLLGIGHLARASRIAAALADDGFDITVVTGGPPIAGFPGQGVKSVTLPPVTSGDNGFSGLVDLQGKPIDDDFKKRRSEMLLQAFRDCRPDIVIVEAFPFGRRQMRFELLPLLETIEATSPRPLLATSVRDILQERVKPGRNEETVDLINRHFDLVMVHGDPAFTTIDKTFPLAGAITAEVTYTGLVGAPPSPAAAERFDILVSVGGGAAGRRLVSSTLAAARIANGWKWCLITGPNLPKDEFDVIACDATPGLSIFRFREDFASLLTGARLSVSQAGYNTVCDVLRAGCRSLLVPFAAGGETEQTVRALMLEELGLATVLTENDLTPDGLAQAIEQALAGPTPSAHRLDLEGARHSAQILRERYRTWSLKMGSGFGKEHDQTDDGS”: the protein production result is given as “failed”.

“MAGSVACRLRPGMAAGGTGMKRYVIFAAIGPLIGGLLLLFATTYQSGYWAHTNLTEVQKFFVVLFKSLQYSYLFGLLPALMMAAIDEIICHIRRVGPGGRVVIVGVIGFLATAFMYGNRGADAGVLQFVLYGLVGLVPATLSSWLANKFCAPVTAETKPASA”: the protein production result is given as “failed”.

Regarding “MAGSVADSDAVVKLDDGHLNNSLSSPVQADVYFPRLIVPFCGHIKGGMRPGKKVLVMGIVDLNPESFAISLTCGDSEDPPADVAIELKAVFTDRQLLRNSCISGERGEEQSAIPYFPFIPDQPFRVEILCEHPRFRVFVDGHQLFDFYHRIQTLSAIDTIKINGDLQITKLG”, the protein production entry is “failed”.

“MAGTDFEPDVKVRSREYRIGCVGAGMIMAECHLAAYAQAGFPVVAIASRTKASAEKVARRWDIPIVHDTPEQLIEDSKVEIVDLAFPPDQQPALIRHALKQPHIKAILAQKPLALTVEEAIKLRDEAAKSGKILSVNQNMRYDQSMRVLKQIIDSGALGDIVFAQIDMHAIPHWQAFLADYDRLTLANMSVHHLDVLRFLFGDPHEITTLTRKDPRTTFDHSDGITVSTLRFPSGVLAVSLEDVWSGPREQGYRDDQHINWRVDGTKGVAKGTIGWPTGVASTLTYASTQTTGGEWVTPSWDTMWFPHAFIGVMEQLQYAVKTGTPPALSVADNVKTMALVEAGYRSMAEGRTVRLSEISTN”: the protein production entry is “failed”.

Consider “MAGTIAIKNGYVFDPLNEINGEKMDIFIRDGKVVKELSASEMKTSRVIDASGMTVMPGGVDSHSHVAGAKVNAGRSMRPEDHYKANLKKTPLTHSGSGYTVPSVYKQGYDYAAMGYTTVFEAAVPPLEARHTHEEMRATPLLDMGGYLVLGNNFFLMRYLRDGDMEKAAAYVAWMMKTHKTYGIKCVNPAGVENWAWGKNVSTLDETNIHFEITPREVIKGLTEVNETLGMPMPVHLHANNLGHPGCYAITKDSLKIPDGVKTKQNMAVEWAETKMDLSRDRSVYLTHLMFNSFAGTTWGDCESGVKDIADYINNKDHVVIDSGCTPFGEATVMTGDGPAIHDLYTLTGNKWSNTDVEMECGSGVLPFTYLKSNPVHSLQWAMGLECLLLIKDPWKTIMTTDSPNGGPFTKYPEVMTWIMSEAFRKQTFSECHKWANDRSELGGINRELSLYDLAILTRANPAKTIGMAHRKGSLGVGADGDVTVYNINPQQLDANNYEALLRTFRKAEYTVKGGEIVAVKGEIVSLPEKRTYYSEVHVENEREKEMLVDVKEWFRYYTLGFANYSTPEKYLANPTPIQVNSER”, for which the protein production entry is given as “failed”.

Turning to “MAGYVGDVAIAYDRDLGHVLFEQYASDIARRTAGKPVRDVLEVASGTGIVTRQLRNVLPGDAQLTAIDISDSMMEVARTKFLPHEQVTFQVANAVALPFDDRAFDTVVCQFGVMFFDKDKAFQETHRVLRQGGRYLFSVWDSRDYNPYASLTFEVMKQFFPSDPPRFLESTVSSFEIDPVKERLIRAGFEQISISVQRRIYDIPDIRAFARGLIFSPIINEIRERGEVDPDDIVEALVKIFIGEYGSNPTRFPMQAILFETEKPLEHHHHHH”, the protein production result is given as “failed”.
